Reference: PMC4980431, “Ctf4 Is a Hub in the Eukaryotic Replisome that Links Multiple CIP-Box Proteins to the CMG Helicase” (Molecular Cell, 2016)

Tests used:
[1] = test system: CMG helicase; assay: Co-purification with CMG helicase from yeast cell extracts; format: cell-based, budding yeast; conditions: extracts of S phase yeast cells; immunoprecipitation, immunoblotting
Description: (D) Cultures of ctf4-4E MCM4-9MYC (YFV13) and MCM4-9MYC control cells (YSS75) were synchronized in G1-phase at 30°C and then released into S phase for 20 min. The Mcm4-9MYC was isolated from cell extracts by immunoprecipitation and the associated proteins monitored by immunoblotting. (E) ctf4-4E is synthetic lethal with mrc1Δ. The cells were processed as in Figure 1A, and the photos in the lower images were taken after 20 hr growth at 30°C (the scale bars represent 50 μm). See also Figure S2. TEXT PRINTED IN THE PICTURE: (C) Ctf4-4E (471-927): 162 kDa
(§1) Yeast growth, two-hybrid analysis, and immunoprecipitation experiments were performed as described in detail previously ([Maculins et al., 2015], [Maric et al., 2014]). A two-hybrid screen against amino acids 461–927 of Ctf4 was performed by the company Hybrigenics.

[2] = test system: Dna2; assay: Yeast two-hybrid with Dna2; format: binding, budding yeast
Description: as §1

[3] = test system: Dpb2; assay: Yeast two-hybrid with Dpb2; format: binding, budding yeast
Description: as §1

[4] = test system: Pol1; assay: Yeast two-hybrid with Pol1; format: binding, budding yeast
Description: as §1

[5] = test system: Tof2; assay: Yeast two-hybrid with Tof2; format: binding, budding yeast
Description: as §1

B1: Ctf4-3E: Ctf4 with M731, I740, and L756 mutated to glutamate; disrupts binding site for type II CIP-box proteins (protein)
chain: MVSVIDKLVFDFGGKTLVSLAPDNNTLCVANKNGLTKILKTNNPEEEPETLDSSKLVSSIKCYSNSHFLMTTMQGDALRYNIDSSQEELLARFALPLRDCCVIHSGKMAVFGGDDLELILLELDDETHKKHAIKIDEQVSQISYNSQMNILAVSMINGKVQIFSLTSTIPNKVHELNDYIVANSYDDTHRDKILSNMMDDIDKDNDNDLSETADPDENNVADPEFCAANRICTRVAWHPKGLHFALPCADDTVKIFSIKGYSLQKTLSTNLSSTKAHFIDLQFDPLRGTYIAAVDLNNKLTVWNWETSEIHYTREFKRKITNIAWKIQADSKTLDLVLGTWSGSIAIVQNLAESVVSNIPDQSVAESSTKHGLFVDSESDLENLEGNDDINKSDKLFSDITQEANAEDVFTQTHDGPSGLSEKRKYNFEDEEDFIDDDDGAGYISGKKPHNEHSYSRVHKTHSFPISLANTGKFRYMPFSPAGTPFGFTDRRYLTMNEVGYVSTVKNSEQYSITVSFFDVGRFREYHFEDLFGYDLCFLNEKGTLFGQSKTGQIQYRPHDSIHSNWTKIIPLQAGERITSVAATPVRVIVGTSLGYFRSFNQFGVPFAVEKTSPIVALTAQNYRVFSVHYSQFHGLSYSLSELGTSSKRYYKRECPLPMSLPNINSDMKKDANLDYYNFNPMGIKSLFFSSYGDPCIFGSDNTLLLLSKWRSPEESKWLPILDSNMEIWKESGGKETTDEHVWPLALAYDTLNCIEVKGKHIWPEFPLPLPSEMEIRMPVFVKSKLLEENKAILNKKNEIGADTEAEEGEEDKEIQIPVSMAAEEEYLRSKVLSELLTDTLENDGEMYGNENEVLAALNGAYDKALLRLFASACSDQNVEKALSLAHELKQDRALTAAVKISERAELPSLVKKINNIREARYEQQLK
- association with CMG helicase (in words) [1]: did not prevent association of Ctf4 with the CMG helicase
- interaction with Dna2 (in words) [2]: without affecting interaction
- interaction with Dpb2 (in words) [3]: unable to interact
- interaction with Pol1 (in words) [4]: without affecting interaction
- interaction with Tof2 (in words) [5]: abolished interaction
